Target: immobilized trimeric proteins
Experiment: SPR; reverse set-up: JR-FL gp120 (900 RU), JR-FL FD gp145 (1400 RU), SF162 FD gp145 (900 RU) or Soc-V1V2JR-FL amine-coupled to CM5 chips; Siglec-1 injected in 10 mM HEPES, 150 mM NaCl pH 7.4, 30 µl/min; some runs with 50 nM Siglec-1 and lactose, 6'-sialyllactose or sialic acid

Siglec-1 (recombinant protein used for SPR) (from UniProt Q9BZZ2 20-1709) (receptor)
fold less affinity than trimeric proteins on immobilized Siglec-1: 10 to 20 fold
